Consider one molecule from patent US20230414780A1.

Test [1] has as its target murine TfR expressed by murine neuroblastoma Neuro-2a cells (mouse) (UniProt Q62351). Kind of test: competition with C5-Alexa680 (100 nM) on living Neuro-2a cells, 3 hrs at 37 C, flow cytometry; Ki/app, mean ± SD.
Test [2] shares this target. Kind of test: cell-based or functional assay.

murine TfR expressed by murine neuroblastoma Neuro-2a cells (mouse), sequence (Q62351 whole entry): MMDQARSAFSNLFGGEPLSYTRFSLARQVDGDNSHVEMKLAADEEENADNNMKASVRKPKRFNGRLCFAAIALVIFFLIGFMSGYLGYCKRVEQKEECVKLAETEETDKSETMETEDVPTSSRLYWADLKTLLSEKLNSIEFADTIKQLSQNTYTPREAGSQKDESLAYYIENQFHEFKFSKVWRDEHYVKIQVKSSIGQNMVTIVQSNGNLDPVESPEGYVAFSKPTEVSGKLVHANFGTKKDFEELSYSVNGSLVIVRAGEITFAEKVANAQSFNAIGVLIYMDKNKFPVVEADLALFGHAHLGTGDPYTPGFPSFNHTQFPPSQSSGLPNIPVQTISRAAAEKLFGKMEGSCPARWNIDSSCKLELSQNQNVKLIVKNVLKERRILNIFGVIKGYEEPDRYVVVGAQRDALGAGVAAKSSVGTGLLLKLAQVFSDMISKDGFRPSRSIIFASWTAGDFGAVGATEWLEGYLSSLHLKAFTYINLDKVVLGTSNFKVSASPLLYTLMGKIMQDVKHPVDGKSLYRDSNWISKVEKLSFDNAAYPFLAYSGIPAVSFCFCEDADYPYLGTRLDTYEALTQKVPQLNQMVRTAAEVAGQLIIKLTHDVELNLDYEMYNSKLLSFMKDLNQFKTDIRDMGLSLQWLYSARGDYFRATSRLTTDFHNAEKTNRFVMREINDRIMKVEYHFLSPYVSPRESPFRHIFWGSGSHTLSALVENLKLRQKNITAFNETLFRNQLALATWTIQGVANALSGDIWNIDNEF

B1: C5-hFc-siSOD1m-5'VP (Fc fusion, part only; not given: Fc knob and hole arms, part only)
chain, part: EVQLVESGGGVVQPGGSLKLSCVASGTDFSINFIRWYRQAPGKQREFVAGFTATGNTNYADSMKGRFTISRDNTKNAVYLQIDSLKPEDTAVYYCYMLDKWGQGTQVTVSS
Molecule B1 showed a Ki in test [1] of 494 nM. Also, in test [2], the IC50 of mSOD1 mRNA downregulation, free uptake on Neuro-2a cells was 8.7 nM.
